Experimental data taken from PMC6981324.

B1: heme-free HasA (apoHasA) (natural protein)
chain: MAFSVNYDSSFGGYSIHDYLGQWASTFGDVNHTNGNVTDANSGGFYGGSLSGSQYAISSTANQVTAFVAGGNLTYTLFNEPAHTLYGQLDSLSFGDGLSGGDTSPYSIQVPDVSFGGLNLSSLQAQGHDGVVHQVVYGLMSGDTGALETALNGILDDYGLSVNSTFDQVAAATAVGVQHADSPELLAA
B2: heme-loaded HasA (holoHasA) (natural protein)
chain: MAFSVNYDSSFGGYSIHDYLGQWASTFGDVNHTNGNVTDANSGGFYGGSLSGSQYAISSTANQVTAFVAGGNLTYTLFNEPAHTLYGQLDSLSFGDGLSGGDTSPYSIQVPDVSFGGLNLSSLQAQGHDGVVHQVVYGLMSGDTGALETALNGILDDYGLSVNSTFDQVAAATAVGVQHADSPELLAA

Columns and labels:
Assay in all cases: ITC
[1] = molecular target: single mutant HasR (Ile671Gly), Ile671Gly-HasR (Serratia marcescens)
[2] = molecular target: wild-type HasR (WT-HasR) (Serratia marcescens)
[3] = molecular target: double mutant HasR (Arg297Ala/Asn800Ala), DM-HasR (Serratia marcescens)

| Binder | Ka [1] [M⁻¹] | dH [1] [kcal/M] | stoichiometry N [1] | Ka [2] [M⁻¹] | dH [2] [kcal/M] | stoichiometry N [2] | Ka [3] [M⁻¹] | dH [3] [kcal/M] | stoichiometry N [3] |
| --- | --- | --- | --- | --- | --- | --- | --- | --- | --- |
| B1 | 1.8e+07 | -54 | 1.06 | 1.7e+08 | -43 | 0.92 | 1.53e+07 | -26 | 1.05 |
| B2 | 9.4e+07 | -46 | 0.99 | 1.1e+06 | -21 | 1.11 | 2.4e+06 | -15 | 1.02 |
